Experimental data as given in patent US12329801B2, “Regenerative polypeptides and uses thereof” (JUVENA THERAPEUTICS, INC., priority 2021, dated 2025).

System: DM1 human myoblast
Assay: Myogenic gene expression fold change in DM1 human myoblast
Format: cell-based
Conditions: 48 h; BMP7 50 ng/mL, Butyrate 100 nM, IGF2 200 ng/mL
Method: Myoblasts were cultured 48 h in the presence of factors (BMP7 50 ng/mL, Butyrate 100 nM, IGF2 200 ng/mL).
Myoblasts were cultured 96 h in the presence of factors (IGF2 200 ng/ml). […] Myoblasts were cultured 48 h in the presence of factors (IGF2 200 ng/mL).
IGF2 was tested individually for its ability to promote proliferation and/or fusion of human muscle progenitor cells from an individual with myotonic dystrophy type 1 (hMD)—a muscular dystrophy caused by mutations in the DMPK1 gene. The effect of IGF2 on myogenic activity was assayed in biological triplicate across a range of concentrations centered around expected physiological levels by adding each factor to hMD myoblasts for 72 hours with daily media changes (DMEM +2% horse serum) and a second pulse of factors at the first media change. After 72 or 96 hours, cells were pulsed for 2-5 hours with EdU (30 uM), ethanol fixed, stained with Hoescht 3342, immunostained for proliferation—as measured by the percent of cells staining positive for EdU (% EdU)-, and immunostained for differentiation—as measured by the increase in cellular area staining positive for embryonic myosin heavy chain (% eMyHC) relative to the negative controls, which received media and vehicle only. Wells were imaged on a Keyence BZ-100 at 4×, the images quantified in Cell Profiler, and the statistics were computed in R. Additionally, RNA was extracted from myoblast and select transcript abundances quantified by qPCR.

B1: BMP7: factor BMP7, 50 ng/mL, tested on DM1 human myoblast (protein, UniProt P18075 293-431, looked up)
Bone morphogenetic protein 7: STGSKQRSQNRSKTPKNQEALRMANVAENSSSDQRQACKKHELYVSFRDLGWQDWIIAPEGYAAYYCEGECAFPLNSYMNATNHAIVQTLVHFINPETVPKPCCAPTQLNAISVLYFDDSSNVILKKYRNMVVRACGCH
- MYF5 expression fold change compared to FM (vehicle): 0.709
- MYOD1 expression fold change compared to FM (vehicle): 0.709
- MYOG expression fold change compared to FM (vehicle): 0.361
